Test results published in US20170043014A1 (Novo Nordisk, published 2017).

Biological target: Recombinant mouse IL-21 (mouse, UniProt Q9ES17 18-146)
Experiment: capture style ELISA, clone selection

B1: Mouse surrogate anti-IL-21 antibody (antibody, IgG1, V domains shown)
VH: EVQLVESGGGLVKPGGSLKLSCAASGFTFNRYSMSWVRQSPEKRLEWVAEISVGGSYTQYVDIVTGRFTISRDNAKNTLYLEMSSLRSEDTAMYYCARLYYSGSGDSYYYAMDYWGQGTSVTVSS
VL: QTVLIQSPAIMSASPGEKVTMTCSASSSVSYMHWYQQKSGTSPKRWIYDTSKLASGVPARFSGSGSGTSYSLTISSMEAEDAATYYCQQWNSNPPTFGGGTKLEMK
notes: mIgG1/kappa isotype
  binding result: binds
